The values below come from patent US20200024360A1 (Janssen / Centocor, published 2020).

Positions count from the first letter of the chain named. In names and notes the source's numbering stands.

Test [1] has as its target T1, cynomolgus CD3ε on primary cynomolgus CD4+ T cells (cynomolgus monkey, UniProt Q95LI5 22-198).
T1 construct: whole, on cells
As to the kind of experiment: flow cytometry on primary cynomolgus CD4+ T cells (CD3e), anti-human IgG (H+L) Alexa Fluor 647. Here is the method:
(§1) The resulting panel of anti-CD3 antibodies was tested for binding against cell-surface CD3ε on primary human T cells. To do this, binding of antibodies from expression supernatants was visualized using a polyclonal anti-human secondary antibody and analyzed by flow cytometry. Briefly, binding of anti-CD3 antibodies to cell-surface CD3E was assessed by flow cytometry using primary Human T lymphocytes purified by negative selection (Biological Specialty, Colmar, USA). Expression supernatants or purified antibodies were normalized to 10 μg/ml in media or FACS buffer (BD BioSciences), respectively. 2×10⁵ cells were aliquoted into wells of a 96 well round-bottomed plate (CoStar) for labeling. Antibodies in expression supernatant were added to cells and incubated for 45 min at 4° C. Following centrifugation at 1300 rpm for 3 min and removal of supernatant, 50 μL of anti-human IgG (H+L) Alexa Fluor 647 secondary antibody (Life technologies Inc.) was incubated with the cells at a final concentration of 10 μg/mL for 30 min at 4° C. away from direct light. Following washing and resuspension in 30 μL FACs buffer (BD BioSciences). Sample collection was performed on an Intellicyt HTFC system using ForeCyt software. Viable single cells were gated prior to analysis of binding using the green or red fixable live/dead dyes (Life Technologies Inc.) and forward/side scatter area and height parameters, respectively. Graphs were generated in GraphPad Prism version 5 using mean fluorescence intensity values.
Binding analysis of the anti-CD3 hits to primary cynomolgus CD4⁺ T cells was then tested in order to assess the retention of cross-reactivity. Purified CD4⁺ T cells from the peripheral blood of cynomolgus monkeys (Zen Bio, Triangle Research Park, USA were used). Assay protocols were similar to those described above.

Test [2] concerns the target T2, human CD3ε on primary human T cells (human, UniProt P07766 23-207).
T2 construct: whole, on cells; Part of the TCR-CD3 complex on the cells; also called cell-surface CD3ε; CD3E
Kind of test: flow cytometry on primary human T cells (cell-surface CD3e), anti-human IgG (H+L) Alexa Fluor 647; one intermediate concentration of the titration is shown. The protocol: as §1

Test [3] deals with T3, human PSMA (prostate specific membrane antigen), full length (human, UniProt Q04609 1-750).
T3 construct: On LNCaP or C4-2B cells (endogenous) or transduced HEK293F cells; also called FOLH1_HUMAN; hPSMA
Kind of test: flow cytometry, bispecific antibody titrated on LNCaP cells (human PSMA), anti-human kappa light chain PE. Here is the method:
(§2) PSMA×CD3 bispecific antibodies were tested for binding to PSMA positive cell lines LNCAP, human PSMA-HEK, Chimpanzee-PSMA-HEK and Cynomolgous monkey PSMA-HEK. To assess the binding capabilities of the PSMA bispecific antibodies, the cell-binding assay was utilized (described previously). Briefly, PSMA expressing tumor cells are bound by bispecific antibodies at known concentrations and the bound antibody is detected by an anti-human kappa light chain PE conjugated detection reagent (Invitrogen). The Mean Fluorescents Intensity (MFI) is the measure of bound bispecific antibody. The MFI is converted to a relative EC₅₀. EC₅₀ is a commonly used dose-response curve, where the half maximal effective concentration or the EC₅₀ point is defined as the inflection point of the curve. EC₅₀ s were determined by measuring cell bound bispecific and known concentrations. […] The dose response curves were then diluted down to that of background or no bispecific binding. The inflection point of this curve reflects the EC₅₀ point. The calculated EC₅₀ is determined by taking the ug/ml amount of bispecific antibody at the EC₅₀ point and converting it to a molarity value based on the MW of the bispecific antibody. Bispecific antibodies were normalized for protein concentration and then incubated with the same number of cells expressing either human or cyno PSMA. The MFI at each concentration was collected by flow cytometry and plotted as a function of concentration. Data was transformed via log 10 and then plotted. Nonlinear regression of binding curves was done to determine EC₅₀ s. These relative values were used for ranking PSMA binding to target cells.

The target of test [4] is T4, Cynomolgous monkey PSMA, full length (Macaca fascicularis, UniProt Q04609 1-750 (human entry)).
T4 construct: On transfected HEK293F cells; also called cyno PSMA; EHH56646.1
T4 chain: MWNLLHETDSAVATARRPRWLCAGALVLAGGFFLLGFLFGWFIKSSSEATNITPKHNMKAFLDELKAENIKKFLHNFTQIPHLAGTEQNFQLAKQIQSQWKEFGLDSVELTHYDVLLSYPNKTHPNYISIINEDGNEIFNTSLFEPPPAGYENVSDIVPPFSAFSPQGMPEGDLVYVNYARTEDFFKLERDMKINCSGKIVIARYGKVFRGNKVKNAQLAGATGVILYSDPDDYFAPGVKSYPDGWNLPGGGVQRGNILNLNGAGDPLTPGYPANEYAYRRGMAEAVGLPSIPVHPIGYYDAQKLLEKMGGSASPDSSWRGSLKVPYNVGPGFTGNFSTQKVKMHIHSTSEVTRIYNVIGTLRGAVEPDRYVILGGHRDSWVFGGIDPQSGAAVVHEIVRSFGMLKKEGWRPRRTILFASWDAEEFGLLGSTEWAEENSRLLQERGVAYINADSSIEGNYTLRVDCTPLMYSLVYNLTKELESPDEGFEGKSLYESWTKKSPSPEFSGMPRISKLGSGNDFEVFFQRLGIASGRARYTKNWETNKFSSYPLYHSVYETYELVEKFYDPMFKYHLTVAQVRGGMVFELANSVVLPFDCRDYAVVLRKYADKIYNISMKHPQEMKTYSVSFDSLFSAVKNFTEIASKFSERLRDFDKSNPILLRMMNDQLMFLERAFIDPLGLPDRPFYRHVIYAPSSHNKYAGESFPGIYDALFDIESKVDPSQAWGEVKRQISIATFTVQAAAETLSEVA
As to the kind of experiment: FACS, whole cell binding, cyno PSMA HEK. The protocol: as §2

The target of test [5] is T5, chimpanzee PSMA, full length (Pan troglodytes, UniProt Q04609 1-750 (human entry)).
T5 construct: On transfected HEK293F cells; also called chimp PSMA; H2Q3K5_PANTR
T5 chain: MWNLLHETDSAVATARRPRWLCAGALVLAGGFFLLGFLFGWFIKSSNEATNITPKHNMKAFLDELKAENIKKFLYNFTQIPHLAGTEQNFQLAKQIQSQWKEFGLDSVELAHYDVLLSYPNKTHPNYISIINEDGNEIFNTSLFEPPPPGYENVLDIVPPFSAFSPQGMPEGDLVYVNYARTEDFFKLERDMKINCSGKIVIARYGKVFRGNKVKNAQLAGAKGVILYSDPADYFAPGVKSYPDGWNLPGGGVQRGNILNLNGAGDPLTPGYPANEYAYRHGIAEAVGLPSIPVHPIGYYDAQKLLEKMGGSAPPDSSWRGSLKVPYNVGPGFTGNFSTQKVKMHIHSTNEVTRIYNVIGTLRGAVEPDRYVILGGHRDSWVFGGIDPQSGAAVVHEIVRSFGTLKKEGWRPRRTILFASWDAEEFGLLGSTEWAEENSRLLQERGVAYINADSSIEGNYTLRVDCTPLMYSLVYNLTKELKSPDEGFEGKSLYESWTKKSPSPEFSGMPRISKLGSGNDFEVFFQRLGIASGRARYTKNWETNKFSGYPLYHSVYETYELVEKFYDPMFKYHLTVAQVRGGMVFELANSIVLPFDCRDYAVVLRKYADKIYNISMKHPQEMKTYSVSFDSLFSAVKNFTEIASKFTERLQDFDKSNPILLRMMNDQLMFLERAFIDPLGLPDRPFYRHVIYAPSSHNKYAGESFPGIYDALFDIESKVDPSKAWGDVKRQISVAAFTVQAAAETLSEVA
Kind of test: FACS, whole cell binding, chimp PSMA HEK; calculated EC50. Here is the method: as §2

The target in test [6] is T5, chimpanzee PSMA, full length. Kind of test: FACS, whole cell binding, chimp PSMA HEK. Here is the method: as §2
For test [7], the target named is T3, human PSMA (prostate specific membrane …). Kind of test: FACS, whole cell binding, LNCaP. Here is the method: as §2
The target is the same in test [8]. As to the kind of experiment: FACS, whole cell binding, LNCaP; calculated EC50. The protocol:
as §2

Test [9] addresses T4, Cynomolgous monkey PSMA, full length. As to the kind of experiment: FACS, whole cell binding, cyno PSMA HEK; calculated EC50. Here is the method:
as §2

T1 sequence (Q95LI5 22-198): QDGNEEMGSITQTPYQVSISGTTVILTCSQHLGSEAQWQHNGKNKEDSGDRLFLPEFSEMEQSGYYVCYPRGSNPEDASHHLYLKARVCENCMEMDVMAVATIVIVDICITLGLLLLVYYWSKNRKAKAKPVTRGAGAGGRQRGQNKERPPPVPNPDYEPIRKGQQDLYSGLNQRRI
T2 sequence (P07766 23-207): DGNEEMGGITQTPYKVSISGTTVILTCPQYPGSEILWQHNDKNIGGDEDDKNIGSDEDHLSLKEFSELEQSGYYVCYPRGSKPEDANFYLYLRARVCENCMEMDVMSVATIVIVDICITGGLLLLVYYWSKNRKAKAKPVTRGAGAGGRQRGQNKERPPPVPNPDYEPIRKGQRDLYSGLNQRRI

B1: CD3B156 (antibody, V domains shown)
VH: EVQLVESGGGLVQPGGSLKLSCAASGFTFNTYAMNWVRQASGKGLEWVGRIRSKYNGYATYYAASVKGRFTISRDDSKNTAYLQMNSLKTEDTAVYYCTRHGNFGNSYVSWFAYWGQGTLVTVSS
VL: QSVLTQPPSVSAAPGQKVTISCRSSTGAVTTSNYANWVQQLPGTAPKGLIGGTNKRAPGIPDRFSGSKSGTSATLGITGLQTGDEADYYCALWYSNLWVFGGGTKLTVL
notes: also called CD3H144/CD3L64
As for B1, the binding result in test [1] and in test [2] was “binds” in each case.

B2: PS3B9 (M84) (bispecific antibody, human IgG4 S228P, kappa, lambda, F234A L235A)
heavy chain, PSMA arm (PSMB127): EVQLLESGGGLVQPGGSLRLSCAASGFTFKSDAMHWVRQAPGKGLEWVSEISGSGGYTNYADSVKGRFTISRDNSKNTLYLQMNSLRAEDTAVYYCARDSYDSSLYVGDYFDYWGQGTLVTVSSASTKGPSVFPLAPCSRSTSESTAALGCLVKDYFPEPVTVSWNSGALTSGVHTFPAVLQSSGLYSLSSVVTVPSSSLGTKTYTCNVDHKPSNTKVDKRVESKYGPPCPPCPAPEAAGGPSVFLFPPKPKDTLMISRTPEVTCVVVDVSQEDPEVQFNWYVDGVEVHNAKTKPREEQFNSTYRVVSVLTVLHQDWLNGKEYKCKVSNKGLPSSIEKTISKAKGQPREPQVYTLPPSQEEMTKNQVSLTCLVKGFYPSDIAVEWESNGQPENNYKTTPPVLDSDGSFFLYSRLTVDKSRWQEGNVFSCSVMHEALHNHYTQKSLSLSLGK
light chain, PSMA arm (PSMB127): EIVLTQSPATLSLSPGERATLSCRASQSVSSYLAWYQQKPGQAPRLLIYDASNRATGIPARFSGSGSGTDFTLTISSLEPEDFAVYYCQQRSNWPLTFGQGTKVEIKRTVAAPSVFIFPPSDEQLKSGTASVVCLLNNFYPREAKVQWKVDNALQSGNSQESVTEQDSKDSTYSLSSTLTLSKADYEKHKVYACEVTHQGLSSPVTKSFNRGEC
heavy chain, CD3 arm (CD3B217): EVQLLESGGGLVQPGGSLRLSCAASGFTFNTYAMNWVRQAPGKGLEWVARIRSKYNNYATYYADSVKGRFTISRDNSKNTLYLQMNSLRAEDTAVYYCVKHGNFGNSYVSWFAYWGQGTLVTVSSASTKGPSVFPLAPCSRSTSESTAALGCLVKDYFPEPVTVSWNSGALTSGVHTFPAVLQSSGLYSLSSVVTVPSSSLGTKTYTCNVDHKPSNTKVDKRVESKYGPPCPPCPAPEAAGGPSVFLFPPKPKDTLMISRTPEVTCVVVDVSQEDPEVQFNWYVDGVEVHNAKTKPREEQFNSTYRVVSVLTVLHQDWLNGKEYKCKVSNKGLPSSIEKTISKAKGQPREPQVYTLPPSQEEMTKNQVSLTCLVKGFYPSDIAVEWESNGQPENNYKTTPPVLDSDGSFLLYSKLTVDKSRWQEGNVFSCSVMHEALHNHYTQKSLSLSLGK
light chain, CD3 arm (CD3B217): QAVVTQEPSLTVSPGGTVTLTCRSSTGAVTTSNYANWVQQKPGQAPRGLIGGTNKRAPGTPARFSGSLLGGKAALTLSGAQPEDEAEYYCALWYSNLWVFGGGTKLTVLGQPKAAPSVTLFPPSSEELQANKATLVCLISDFYPGAVTVAWKADSSPVKAGVETTTPSKQSNNKYAASSYLSLTPEQWKSHRSYSCQVTHEGSTVEKTVAPTECS
notes: also called PSMB127 x CD3B217
Consider B2, for which the concentration giving a half-maximal response (EC50 (read off the curve)) in test [3] was about 2 µg/mL.

B3: PS3B26 (bispecific antibody, human IgG4 S228P, kappa, lambda, F234A L235A)
heavy 1: not shown
light 1: not shown
heavy 2: B2 heavy chain, CD3 arm (CD3B217) with L5V, D64A, N76D, T80S, R89K, A90T, V99A, K100R
light 2: B2 light chain, CD3 arm (CD3B217) with A2T, A80V
notes: IgG4 PAA; PSMA arm chains first, then CD3 arm (F405L, R409K); also called PSMB126 x CD3B219
For the molecule B3, the EC50 was 0.371 µg/mL in test [4]; 0.34 nM in test [5]; 0.05 µg/mL in test [6]; 0.0715 µg/mL in test [7]; 0.5 nM in test [8]; 2.6 nM in test [9].

B4: PS3B4 (M52) (bispecific antibody, human IgG4 S228P, kappa, lambda, F234A L235A)
heavy chain, PSMA arm (PSMB122): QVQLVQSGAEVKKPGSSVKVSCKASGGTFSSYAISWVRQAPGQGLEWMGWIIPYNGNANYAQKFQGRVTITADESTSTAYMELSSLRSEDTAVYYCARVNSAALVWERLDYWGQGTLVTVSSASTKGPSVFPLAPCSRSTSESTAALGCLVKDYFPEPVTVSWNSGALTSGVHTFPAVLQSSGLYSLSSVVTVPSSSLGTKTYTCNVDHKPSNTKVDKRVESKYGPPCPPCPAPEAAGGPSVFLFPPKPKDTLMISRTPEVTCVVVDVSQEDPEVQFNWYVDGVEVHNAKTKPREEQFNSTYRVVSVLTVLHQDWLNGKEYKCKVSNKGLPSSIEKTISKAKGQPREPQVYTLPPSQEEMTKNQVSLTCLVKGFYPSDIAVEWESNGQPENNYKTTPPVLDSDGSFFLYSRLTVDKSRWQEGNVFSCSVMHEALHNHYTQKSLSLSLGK
light chain, PSMA arm (PSMB122): DIQMTQSPSSLSASVGDRVTITCRASQSIDRWLNWYQQKPGKAPKLLIYAASSLQSGVPSRFSGSGSGTDFTLTISSLQPEDFATYYCQQSPRYPLTFGQGTKVEIKRTVAAPSVFIFPPSDEQLKSGTASVVCLLNNFYPREAKVQWKVDNALQSGNSQESVTEQDSKDSTYSLSSTLTLSKADYEKHKVYACEVTHQGLSSPVTKSFNRGEC
heavy chain, CD3 arm (CD3B217): B2 heavy chain, CD3 arm (CD3B217)
light chain, CD3 arm (CD3B217): B2 light chain, CD3 arm (CD3B217)
notes: also called PSMB122 x CD3B217
Take B4: the concentration for a half-maximal effect (EC50 (read off the curve)) in test [3] is about 2 µg/mL.

B5: PS3B8 (M81) (bispecific antibody, human IgG4 S228P, kappa, lambda, F234A L235A)
heavy chain, PSMA arm (PSMB126): not shown
light chain, PSMA arm (PSMB126): not shown
heavy chain, CD3 arm (CD3B217): B2 heavy chain, CD3 arm (CD3B217)
light chain, CD3 arm (CD3B217): B2 light chain, CD3 arm (CD3B217)
notes: also called PSMB126 x CD3B217
B5: in [3], the “EC50 (read off the curve)” value was about 0.1 µg/mL.
